Results published in the supplement of paper PMC12042874.
± gives the uncertainty stated by the source.

Assay: amyloid nucleation score (Sup35N fusion, yeast selection) (log enrichment); library NNK2; higher = more nucleation; inactive = no reads after selection
Method in brief: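 On medium lacking adenine and uracil, psi-negative yeast expressing peptides of 20 random codons fused to Sup35N were grown 7 days at 30°C after a 24-hour induction with 100 μM copper sulfate. Illumina sequencing of input and output plasmid inserts gave the reads, and sequences under 100 input reads were excluded. The nucleation score is the DiMSum log enrichment of output over input reads, centred on the mode score of non-aggregating sequences.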

In order of falling amyloid nucleation score:
1. FIMSSVCMIRCNITCSHQPS  8.21 ± 0.035
2. FILRHQFCLRTLIYGPSIFF  7.465 ± 0.045
3. FFIIGDCGVLSCPAGGQLWS  7.177 ± 0.037
4. FGWVINVNVRPTRFVTEGPV  6.54 ± 0.073
5. FCVLIGGCFFGNSK  6.157 ± 0.038
6. FIRQKGYTVFLVCGNYVWMT  5.979 ± 0.056
7. FSSFDIMRQLTMLNICLVSW  5.773 ± 0.047
8. FSSNLISPSVEISCVLIWLG  5.67 ± 0.074
9. FGSALFSIILH  5.607 ± 0.033
10. FCSHVGLVYCTYIMMRVSMR  5.501 ± 0.034
11. FHIDTIRTVRLAWYTTEHWQ  5.34 ± 0.07
12. FLNNVVYRHCDSYLTGNCRN  5.151 ± 0.041
13. FMCLHSARNVVMRMDVRVVL  4.93 ± 0.078
14. FTGCVYSVFSNQQ  4.76 ± 0.11
15. FFDIVIAERLTVLHVSVVSK  4.59 ± 0.074
16. FSVMMLMAVLMGTKIGVTEN  4.19 ± 0.087
17. FTVLCYSSDIMEDFRFTHHN  4.12 ± 0.047
18. FIMVQRLSCLVVQISRAGAC  3.79 ± 0.12
19. FFCRG  3.26 ± 0.084
20. FPFKCTSQDSFFFNFKWSRR  3.25 ± 0.17
21. FINRPVKRKLNSSNIYICV  3.16 ± 0.14
22. FMGFTISFFVRDFAPDLTKR  3.1 ± 0.064
23. FIFVLI  3.08 ± 0.11
24. FFKISQSTTTEQLVYSCYSS  3.02 ± 0.095
25. FFMNNALFRGWG  2.97 ± 0.15
26. FTNVSEIWMSFGHNPESGLA  2.92 ± 0.074
27. FLVLVWSRCSNLFL  2.86 ± 0.14
28. FSVDMHRWLMTWRHQRDRRV  2.75 ± 0.18
29. FRRVLCYKYYSFA  2.42 ± 0.14
30. FSGRKPSIVLHHSSECQP  2.38 ± 0.2
31. FFYQVWGNN  2.26 ± 0.11
32. FRFTQDMDFRAQFDELSWRL  2 ± 0.28
33. FSPLC  1.83 ± 0.14
34. FCTLCFSLCQ  1.82 ± 0.23
35. FAVTGFTWYMKIRCASIPLV  1.65 ± 0.21
36. FHTLRVE  1.46 ± 0.3
37. FIFRMHAFNGIRLWCV  1.38 ± 0.22
38. FCKSVHKVHGHNVWCTLCAG  1.11 ± 0.18
39. FSKSVVGSPERKHVDT  0.948 ± 0.34
40. FGFNCMGWYRDCAVTSTWGA  0.809 ± 0.31
41. FLNPFNHREHPRVED  0.775 ± 0.62
42. FHGRSATGISRLYLKRGCSG  0.761 ± 0.47
43. FCGDILSVT  0.695 ± 0.66
44. FCPFWDSWWGKPCRPAIDSA  0.683 ± 0.74
45. FLLRHSSCEVIGC  0.665 ± 0.36
46. FRSGRWRNGALSWHALATL  0.658 ± 0.52
47. FFQFTTDSHCND  0.654 ± 0.8
48. FCTNSYSFMDGTSCWAELRA  0.594 ± 0.47
49. FSSQFHLRAYNTIRCSLDDF  0.534 ± 0.8
50. FCREWDRSRQKG  0.508 ± 0.25
51. FPLDIKGKWDVGNMEGKVVE  0.486 ± 0.41
52. FLCLLDRVIMTLFFRIAL  0.453 ± 0.65
53. FPLVWA  0.416 ± 0.22
54. FFEFRCWVMKGFWPLRMKDM  0.414 ± 0.65
55. FRMFNVGFPDRPIMFRVDRL  0.41 ± 0.74
56. FMSGGVVYSLMTGTR  0.388 ± 0.36
57. FRIYA  0.388 ± 0.29
58. FTNNSPARSCDRVHGDGVRH  0.376 ± 0.35
59. FCRGIHVTSIITTIDWYYSL  0.36 ± 0.62
60. FICPMYESSRIVV  0.335 ± 0.64
61. FASYRVY  0.305 ± 1
62. FMRGLMARLCER  0.293 ± 0.4
63. FIRSIHCVKMDELAWLLSVS  0.252 ± 0.46
64. FSEVSCGLCTMYTLFVEFFN  0.174 ± 1
65. FTIALIYTFLLISCLLGMSV  0.164 ± 1.1
66. FMMTRKGIFELHFISRE  0.097 ± 1.1
67. FGWGN  0.09 ± 0.51
68. FSMFMDIRRFMGSRWCV  0.089 ± 1.1
69. FLQRSRNMNCLRGHDFNSNG  0.053 ± 1.1
70. FELIFELLLKKCALI  0.032 ± 0.54
71. FSVRVTSRFIRYEGSFHFSK  0.032 ± 0.76
72. FHSRFSMRPDDLWSQNARVW  0.028 ± 0.79
73. FRDANKGCIEKFVVTCDFRM  0.003 ± 0.38
74. FNLLARMIVYGIVLSQGKTG  -0.01 ± 0.63
75. FIRWSLWR  -0.012 ± 1.1
76. FRALKMISDPSRHSVLL  -0.02 ± 0.34
77. FLNKDGNIV  -0.022 ± 0.55
78. FESRFYHSVLTIVTLFTYPA  -0.025 ± 1.1
79. FGLLWNNQSWLVARVSCSNL  -0.04 ± 0.36
80. FTLFVRHPGIVALERNFMVR  -0.062 ± 0.35
81. FDRRVDV  -0.076 ± 0.29
82. FSTCYPPSDWVSRMASETLN  -0.096 ± 0.65
83. FLVVGGT  -0.112 ± 0.21
84. FHWYGTVVIYVYLLADVYRC  -0.153 ± 0.36
85. FFYLRFAQWQLCRTFNAQGM  -0.184 ± 1.1
86. FKFGPMDSIKYMSANFISQC  -0.189 ± 0.64
87. FDLCCMKYHSYHMQFI  -0.214 ± 1
88. FTNLVTLYVYCYSFWYGILN  -0.232 ± 1.1
89. FLDGAYSWLWLGSYIRGLSH  -0.262 ± 0.56
90. FRSMFISWVM  -0.271 ± 1
91. FRVIWVVLVACQVSFHVRFV  -0.283 ± 1
92. FSGSTIDWL  -0.302 ± 0.3
93. FRTASLHVCLFLSG  -0.316 ± 0.61
94. FAVNDCILCCRRSHWVLPYW  -0.334 ± 0.63
95. FGNRLNFDILTTFVIKRWCM  -0.342 ± 0.76
96. FHISYDTSS  -0.35 ± 1.1
97. FTMGVRRLCYSWLRARFVKC  -0.368 ± 1
98. FNVEVRV  -0.379 ± 0.45
99. FPSCSRGLHFKGLWTWYFPT  -0.388 ± 1.1
100. FSFYLGRKSMRWCNSCWYSW  -0.445 ± 0.22
101. FKIDNGWYWCRTCGQNKGSS  -0.461 ± 0.56
102. FNDRHVCHREKFSRELGFCS  -0.479 ± 1
103. FNRDK  -0.512 ± 0.76
104. FFVLRHA  -0.513 ± 0.32
105. FHVCWERSMLIRV  -0.559 ± 0.76
106. FCPVHSGISS  -0.578 ± 0.79
107. FRGLVILNRNGVCDILEYGC  -0.58 ± 0.27
108. FGYVVVKRPSSMLLRASRDG  -0.619 ± 1
109. FNSCDAWYCMNSQVSRTTYL  -0.624 ± 0.41
110. FCRLLPSLCTTNLK  -0.663 ± 0.76
111. FLLPSYERDSSYVAYF  -0.687 ± 0.79
112. FLRVRP  -0.719 ± 0.29
113. FRYLDRSNYRKSCGYIITLT  -0.74 ± 1.1
114. FCAMGGPSRGLVNRWFGS  -0.746 ± 0.41
115. FCKYANSGGCNHSMSDAV  -0.761 ± 1.1
116. FRGVLWLSYLQDYRFDLYCM  -0.773 ± 0.61
117. FCSSSVIYQKKLA  -0.782 ± 0.24
118. FDPIRWLLNYIFMASTLYVE  -0.804 ± 0.44
119. FCLNATKAWFVLGVMYLDHW  -0.805 ± 0.35
120. FSDWIWTYCSQSFNGQE  -0.817 ± 0.76
121. FGYKR  -0.828 ± 0.61
122. FCVISKGRHVSMRTTSGFLE  -0.834 ± 0.54
123. FKSLVSMVENDWMS  -0.855 ± 0.44
124. FNMTIVDISLYRFMNVLKRP  -0.907 ± 0.78
125. FCRETLRTRKAETLGTVNKE  -0.937 ± 0.78
126. FMTGSFEENS  -0.945 ± 1.1
127. FDDRMCLCTIKQSK  -1 ± 0.78
128. FENIDGWRLFIIARRRAIGG  -1 ± 1
129. FIYVSWRTWSEIVGMCFGVV  -1 ± 0.45
130. FMITQSFSGT  -1.05 ± 0.41
131. FCNFGFIRNRSDDIGVSRGV  -1.07 ± 0.47
132. FRYIFRHKHGWTFLHKMVRK  -1.07 ± 1.1
133. FGDWWSI  -1.1 ± 0.63
134. FPTIDRQVFDVRR  -1.17 ± 0.41
135. FSSSEHVFQVDGGFDKNRPI  -1.47 ± 0.78
136. FGMSCWFLFFASQFSVTNNC  -1.51 ± 0.76
137. FNFYKWYYIGLTAISFVYTV  -1.51 ± 1
138. FNIPGHSH  -1.51 ± 0.78
139. FRSNSDLISFERASFR  -1.62 ± 0.55
140. FKNFFSYLLLGVPLIAAITW  -1.67 ± 0.41
141. FDCGGCKNMGF  -1.74 ± 0.62
142. FFIWLPYRSTTINRISPCWG  -1.94 ± 0.54
143. FLGFI  -1.94 ± 1.1
144. FMLFRRGKNQRFRRLTDYKN  -2.44 ± 1.1

With FCGFNDPGRD the amyloid nucleation score was “inactive”.
With FDHMWLSGQVQWFLNYTTSL the amyloid nucleation score was “inactive”.
In the case of FFFVPSFDTLEHTLRVGLLR, the amyloid nucleation score is reported as “inactive”.
In the case of FFIQLSIPERFTVRVLIRRR, the amyloid nucleation score is reported as “inactive”.
For FFQLSYNIQASSNNLMASVS, the amyloid nucleation score was “inactive”.
With FFVMGRSGYSLVALKREKSI the amyloid nucleation score was “inactive”.
For FFYSVRVRPALIIC, the amyloid nucleation score was “inactive”.
With FGFGRRKSKKWLVDLDPRR the amyloid nucleation score was “inactive”.
With FHIFQFVSLGFWSSEG the amyloid nucleation score was “inactive”.
With FITNHK the amyloid nucleation score was “inactive”.
In the case of FKICGTFDAFKKL, the amyloid nucleation score is reported as “inactive”.
For FLDWVLSD, the amyloid nucleation score was “inactive”.
With FLNPYNFWLDFWYFLIDSMT the amyloid nucleation score was “inactive”.
With FLNSWQVGYLSCSSKLVACN the amyloid nucleation score was “inactive”.
In the case of FLSEFVRIGPYARS, the amyloid nucleation score is reported as “inactive”.
For FLSLIGKSRS, the amyloid nucleation score was “inactive”.
With FLSVTFFRLIRCMAL the amyloid nucleation score was “inactive”.
In the case of FLTYRLSNYYTPGKFCVYFK, the amyloid nucleation score is reported as “inactive”.
For FNIMIWA, the amyloid nucleation score was “inactive”.
For FNNMWYSFKQSLSACSVGRR, the amyloid nucleation score was “inactive”.
With FNSLGFRLTSCIDRVTLVLW the amyloid nucleation score was “inactive”.
For FPIYFFA, the amyloid nucleation score was “inactive”.
With FRRNKNN the amyloid nucleation score was “inactive”.
For FRVDYKMKCAFASHFSNSFY, the amyloid nucleation score was “inactive”.
For FSEPWKWYYADLVFLSVTWL, the amyloid nucleation score was “inactive”.
With FSFNIPQFINV the amyloid nucleation score was “inactive”.
With FSFRLYMEFLWGI the amyloid nucleation score was “inactive”.
For FSRQISNGFIRGLFL, the amyloid nucleation score was “inactive”.
